The values that follow come from the supplement of paper PMC9112550, “Optimization of the antimicrobial peptide Bac7 by deep mutational scanning” (BMC Biology, 2022).

This data set relates to Escherichia coli TOP10. Put plainly: shrunken log2 fold change of peptide-encoding DNA abundance (4.5 h post-induction vs induction); higher = less antimicrobial activity (less host growth inhibition). The settings on record: time post-induction: 4.5 h; library: site-saturation at positions 5, 18, 19, 20.
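Also: peptides expressed intracellularly from a pBAD plasmid library in pooled LB shake-flask culture, induced with 0.3% L-arabinose, DNA abundance read by NGS, three biological replicates, DESeq2 with apeglm shrinkage.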

Regarding RRIRNRPPRLPRPRPRPCTGPRP, the “shrunken log2 fold change” value was -0.0472.

Take RRIRVRPPRLPRPRPRPGIRPRP: the “shrunken log2 fold change” value was -0.0476.

In the case of RRIRARPPRLPRPRPRPGFLPRP, the “shrunken log2 fold change” value is 0.426.

In the case of RRIRKRPPRLPRPRPRPAGRPRP, the “shrunken log2 fold change” value stood at 0.432.

On to RRIRVRPPRLPRPRPRPEFAPRP, for which the “shrunken log2 fold change” value came to 0.169.

As for RRIRCRPPRLPRPRPRPNWCPRP, the “shrunken log2 fold change” value is -0.0555.

In the case of RRIRGRPPRLPRPRPRPRTEPRP, the “shrunken log2 fold change” value worked out at 0.755.

Consider RRIRHRPPRLPRPRPRPLDVPRP, for which the “shrunken log2 fold change” value was 0.0138.

Regarding RRIRERPPRLPRPRPRPNCAPRP, the “shrunken log2 fold change” value came to 0.172.

Turning to RRIRCRPPRLPRPRPRPRHDPRP, the “shrunken log2 fold change” value is -0.234.

In the case of RRIRSRPPRLPRPRPRPPFLPRP, the “shrunken log2 fold change” value is -0.0588.

Regarding RRIRHRPPRLPRPRPRPGVPPRP, the “shrunken log2 fold change” value turned out to be 0.191.

As to RRIRFRPPRLPRPRPRPNLMPRP, the “shrunken log2 fold change” value was -0.144.

As to RRIRWRPPRLPRPRPRPHLQPRP, the “shrunken log2 fold change” value is 0.103.

On to RRIRSRPPRLPRPRPRPERVPRP, for which the “shrunken log2 fold change” value stood at 0.21.

Turning to RRIRVRPPRLPRPRPRPANIPRP, the “shrunken log2 fold change” value is -0.156.

Take RRIRIRPPRLPRPRPRPQAFPRP: the “shrunken log2 fold change” value is -0.0625.

For RRIRVRPPRLPRPRPRPEVDPRP, the “shrunken log2 fold change” value stood at 0.296.

On to RRIRWRPPRLPRPRPRPMDIPRP, for which the “shrunken log2 fold change” value was -0.175.

On to RRIRQRPPRLPRPRPRPMSKPRP, for which the “shrunken log2 fold change” value was -0.0682.

On to RRIRSRPPRLPRPRPRPLEIPRP, for which the “shrunken log2 fold change” value was found to be 0.11.

For the sequence RRIRDRPPRLPRPRPRPWDGPRP, the “shrunken log2 fold change” value is -0.0761.

For the sequence RRIRKRPPRLPRPRPRPRHVPRP, the “shrunken log2 fold change” value is 0.0906.

On to RRIRHRPPRLPRPRPRPVANPRP, for which the “shrunken log2 fold change” value is -0.0206.

As to RRIRCRPPRLPRPRPRPSDDPRP, the “shrunken log2 fold change” value was 0.334.

Consider RRIRQRPPRLPRPRPRPPNEPRP, for which the “shrunken log2 fold change” value was 0.266.

In the case of RRIRARPPRLPRPRPRPALWPRP, the “shrunken log2 fold change” value worked out at 0.833.

RRIRHRPPRLPRPRPRPQNSPRP: the “shrunken log2 fold change” value was -0.423.

In the case of RRIRERPPRLPRPRPRPSEIPRP, the “shrunken log2 fold change” value was -0.16.

On to RRIRSRPPRLPRPRPRPHTLPRP, for which the “shrunken log2 fold change” value was -0.116.

On to RRIRQRPPRLPRPRPRPGANPRP, for which the “shrunken log2 fold change” value was 0.17.

In the case of RRIRIRPPRLPRPRPRPWNFPRP, the “shrunken log2 fold change” value is -0.00674.

Take RRIRVRPPRLPRPRPRPVRWPRP: the “shrunken log2 fold change” value worked out at 0.805.

As to RRIRARPPRLPRPRPRPYMEPRP, the “shrunken log2 fold change” value was -0.348.

On to RRIRNRPPRLPRPRPRPYVNPRP, for which the “shrunken log2 fold change” value was -0.121.

Take RRIRHRPPRLPRPRPRPPHAPRP: the “shrunken log2 fold change” value was 0.334.

As for RRIRRRPPRLPRPRPRPMMFPRP, the “shrunken log2 fold change” value came out at 0.284.

Consider RRIRFRPPRLPRPRPRPLMQPRP, for which the “shrunken log2 fold change” value is -0.0117.

Turning to RRIRPRPPRLPRPRPRPWCAPRP, the “shrunken log2 fold change” value stood at 0.208.

For the sequence RRIRDRPPRLPRPRPRPTFMPRP, the “shrunken log2 fold change” value was -0.07.

On to RRIRLRPPRLPRPRPRPPHFPRP, for which the “shrunken log2 fold change” value came to 0.437.

Regarding RRIRGRPPRLPRPRPRPYFYPRP, the “shrunken log2 fold change” value was -0.03.

Consider RRIRDRPPRLPRPRPRPFEAPRP, for which the “shrunken log2 fold change” value was 0.277.

For RRIRKRPPRLPRPRPRPCPTPRP, the “shrunken log2 fold change” value came to 0.0658.

In the case of RRIRNRPPRLPRPRPRPTEGPRP, the “shrunken log2 fold change” value is 0.0116.

Turning to RRIRMRPPRLPRPRPRPYCMPRP, the “shrunken log2 fold change” value was -0.53.

In the case of RRIRFRPPRLPRPRPRPVCMPRP, the “shrunken log2 fold change” value is -0.498.

In the case of RRIRIRPPRLPRPRPRPKIVPRP, the “shrunken log2 fold change” value was -0.716.

Consider RRIRMRPPRLPRPRPRPQESPRP, for which the “shrunken log2 fold change” value was found to be 0.55.

With RRIRHRPPRLPRPRPRPFIEPRP, the “shrunken log2 fold change” value was -0.276.

Consider RRIRLRPPRLPRPRPRPRLFPRP, for which the “shrunken log2 fold change” value is 0.17.

For the sequence RRIRCRPPRLPRPRPRPWYCPRP, the “shrunken log2 fold change” value is -0.248.

Turning to RRIRIRPPRLPRPRPRPCYGPRP, the “shrunken log2 fold change” value was -0.202.

Consider RRIRMRPPRLPRPRPRPAFPPRP, for which the “shrunken log2 fold change” value is -0.104.

Regarding RRIRERPPRLPRPRPRPFDEPRP, the “shrunken log2 fold change” value was -0.433.

As to RRIRGRPPRLPRPRPRPCSSPRP, the “shrunken log2 fold change” value was -0.129.

As for RRIRMRPPRLPRPRPRPTGSPRP, the “shrunken log2 fold change” value amounted to 1.34.

As to RRIRMRPPRLPRPRPRPKYAPRP, the “shrunken log2 fold change” value worked out at 0.928.

With RRIRARPPRLPRPRPRPPFCPRP, the “shrunken log2 fold change” value came to 0.31.

As for RRIRIRPPRLPRPRPRPYMDPRP, the “shrunken log2 fold change” value was -0.315.

Regarding RRIRNRPPRLPRPRPRPWPHPRP, the “shrunken log2 fold change” value is -0.0312.

As for RRIRERPPRLPRPRPRPGWRPRP, the “shrunken log2 fold change” value is 0.0971.

For the sequence RRIRYRPPRLPRPRPRPNNNPRP, the “shrunken log2 fold change” value is -0.989.
